Tests used:
[1] = target: T1, Dipeptidyl peptidase IV (DPP-IV) (UniProt P22411 38-766, limits assumed); assay: cell-based or functional assay
[2] = target: T1, Dipeptidyl peptidase IV (DPP-IV); assay: cell-based or functional assay; remark: listed apart in the source

T1 sequence (P22411 38-766 limits assumed): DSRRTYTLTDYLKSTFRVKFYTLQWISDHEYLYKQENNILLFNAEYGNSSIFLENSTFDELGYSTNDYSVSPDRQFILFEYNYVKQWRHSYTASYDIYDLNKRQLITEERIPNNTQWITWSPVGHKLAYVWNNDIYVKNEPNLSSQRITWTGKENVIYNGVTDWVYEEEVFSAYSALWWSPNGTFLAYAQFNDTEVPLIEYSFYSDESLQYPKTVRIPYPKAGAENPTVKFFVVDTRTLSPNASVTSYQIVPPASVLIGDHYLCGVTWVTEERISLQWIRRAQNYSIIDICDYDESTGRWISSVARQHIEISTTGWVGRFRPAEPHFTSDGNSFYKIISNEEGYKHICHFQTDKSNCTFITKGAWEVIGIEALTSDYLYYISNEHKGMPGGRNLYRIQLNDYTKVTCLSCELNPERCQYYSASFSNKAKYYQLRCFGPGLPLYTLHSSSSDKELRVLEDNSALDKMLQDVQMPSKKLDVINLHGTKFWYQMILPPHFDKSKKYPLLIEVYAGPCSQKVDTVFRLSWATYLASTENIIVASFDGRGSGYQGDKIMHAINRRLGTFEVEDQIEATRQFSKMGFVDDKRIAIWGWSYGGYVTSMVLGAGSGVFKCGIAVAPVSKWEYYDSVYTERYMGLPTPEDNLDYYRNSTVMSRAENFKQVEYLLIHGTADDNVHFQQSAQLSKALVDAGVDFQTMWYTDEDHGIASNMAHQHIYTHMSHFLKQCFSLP

| Binder | RELATIVE POTENCY [%] (DPP-IV inhibition assay, Gly-Pro-p-nitroanilide conversion, on-line LC-BCD-MS) [1] | IC50 of DPP-IV inhibition (estimated from relative potency) [2] [µM] |
| --- | --- | --- |
| YVPEPF | 20 |  |
| EMPFPK | 12 |  |
| GPFPIIV | 9 |  |
| HPIK | 6 | ~120 |
| LPVPQ | 28 |  |
| APFPEVF | 6 | ~120 |
| PFP | 20 |  |
| MPLW | 23 |  |
| VPYPQ | 51 |  |
| LPL | 100 | ~5 |
| PQSVLS | 20 |  |
| LPVP | 15 |  |
| APFPE | 9 |  |
| PLLQ | 37 |  |
| LPQYL | 26 |  |

Results, then the binder that gave them:

| RELATIVE POTENCY [%] (DPP-IV inhibition assay, Gly-Pro-p-nitroanilide conversion, on-line LC-BCD-MS) [1] | IC50 of DPP-IV inhibition (estimated from relative potency) [2] [µM] | Binder |
| --- | --- | --- |
| 34 |  | GPFP |
| 63 |  | LPVPQK |
| 55 |  | VPLGTQ |
| 98 |  | KVLP |
| 11 |  | LPLP |
| 100 | ~5 | IPI |

— patent US20090075904A1 (CAMPINA NEDERLAND HOLDING B V, published 2009)
